assay: yeast display, Sf9 membrane polyspecificity reagent, FACS + sequencing; frameworks hold sequencing errors
Procedure, shortened: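 Synthetic nanobody libraries on Saccharomyces cerevisiae BJ5465 were galactose-induced for 36–48 hours, stained 1 hour at 4 °C with 10% biotinylated, detergent-solubilized Sf9 membrane reagent and enriched on streptavidin microbeads. FACS then separated cells into low and high (top ~1%) gates by anti-HA (expression) and streptavidin (reagent binding) fluorescence. Genes were colony-PCR amplified, MiSeq 2 × 250 sequenced and CDR-length filtered. A clone's polyreactivity label is that of its gate of origin.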

Sequence | polyreactivity (PSR sort gate)
QVQLVESGGGLVQAGGSLRLSCAASGGTISRYGMGWYRPAPRKERELVAAITRSGSTNYADSVKERFTISRDNAKYTVYLQMNSLKPEDTAVYYGATDKRGRIGGTFDYWGQGTQVTVSS | low polyreactivity
QVQLVESGGGLVQAGGSLRLSCAASGGTLDVYAMGWYRQAPGKEREFVAAISWSGGRTYYADSVKGRFTISRDNAKNTVYLQMNSLKPEDTAVYYCATRDRAGYYYWGQGTQVTVSS | high polyreactivity
QVQLVESGGGLVQAGGSLRLSCAASGGTLDYYVMAWYRQAPGKERELVAAISTNGGSTNYADSVKGRFTISRDNAKNTVYLQMNSLKPEDTAVYYCAATSDVYVFLEFDYWGQGTQVTVSS | low polyreactivity
QVQLVESGGGLVQAGGSLRLSCAASGGTLRGYAMGGYRQAPGKEREFDATISRRGGSTYYADSVKGRFTNSRDNAKNTVYLQMNSLKPEDTAVYYCAKQGQSDYYSWGQGTQVTVSS | high polyreactivity
QVQLVESGGGLVQAGGSLRLSCAASGGTLRYYAMGWYRQAPGKEREFVASISRSGGSTYYADSVKGRFTISRDNAKNTVYLQMNSLKPEDTAVYYCAAYWSPGYTTRRGYWGQGTQVTVSS | high polyreactivity
QVQLVESGGGLVQAGGSLRLSCAASGGTLRYYAMGWYRQAPGTEREFVASIARSGGSTYYADSVKGGFTISRDNAKNTVYLQMNRLKPEDTAVYYCADRVRLYRGFTKYDYWGQGTQVTVSS | high polyreactivity
QVQLVESGGGLVQAGGSLRLSCAASGGTLYYYAMGWSRQAPGKERELVADITNSGSTNYADSVKGRFTISRDNAKNTVYLQMNSLKPEDTAVYYCAAYSWSWYHPEFDYWGQGTQVTVSS | high polyreactivity
QVQLVESGGGLVQAGGSLRLSCAASGGTSRSYAMGWYRQAPGKERELVAAISWRGGRTYYADSVKGRFTISRDNAKNTVYLQMNSLKPEDTAVYYCAARQYSQEPYDYWGQGTQVTVSS | high polyreactivity
QVQLVESGGGLVQAGGSLRLSCAASGGTVKYYAMGWSRQSPGKERELVAAITWSGGSTYYADSVKGRFTISRDNAKNTVYLQMNSLKPEDTAVYYCNAAYSQISFNYWGQGTQVTVSS | high polyreactivity
QVQLVESGGGLVQAGGSLRLSCAASGGTVYRNAMGWYRQAPGKERELVAAITRSGSTNYADSVKGRFTISRDNAKNTVYLQMNSLKPEDTAVYYCAAKFFRNTYSYGMDYWGQGTQVTVSS | high polyreactivity
QVQLVESGGGLVQAGGSLRLSCAASGHIFFINAMGWYRQAPGKERELVAAIDWSGGSTYYADSVKGRFTISRDNAKNTDYLQMNSLKPADTAVYYCAAELLWDYILYYYWGQGTQVTVSS | high polyreactivity
QVQLVESGGGLVQAGGSLRLSCAASGHIFFYYTMGWYRQAPGKERELVAGITIGGSTNYADSVKGRFTISRDNAKNTVYLQMNSLKPEDTAVYYCNVVKYVYIYTYWEYYYWGQGTQVTVSS | low polyreactivity
QVQLVESGGGLVQAGGSLRLSCAASGHIFGRYAMGWYRQAPGKERELVAAITSGGRTNYADSVKGRFTISRDNAKNTVYLQMNSLKPEDTAVYYCAAYSWYFGSRYDYWGQGTQVTVSS | low polyreactivity
QVQLVESGGGLVQAGGSLRLSCAASGHTFRYYAMGWYRQAPGKERELVAAITGGGGSTYYADSVKGRFTISRDNAKNTVYLQMNSLKPEDTAVYYFATGGVSGIVGGDYWGQGTQVTVSS | low polyreactivity
QVQLVESGGGLVQAGGSLRLSCAASGIFRSNARGWYRQAPGKERELVAGISSGGGTNYADSVKGRFTISRDNAKNTVYLQMNSLKPEDTAVYYCAKERIYFDYWYVYTDLVYEYDYWGQGSQVTVSS | low polyreactivity
QVQLVESGGGLVQAGGSLRLSCAASGIFSYYAMGWSRQAPGKERELVAAISWSGGSTYYADSVKGRFTISRDNAKNTVYLQKNSLKPEDTAVYYCNKAYLTSQPRLGYWGQGTQVTVSS | high polyreactivity
QVQLVESGGGLVQAGGSLRLSCAASGIFWANTMEWYRQAPGKERELVAAISWSGDRTYYADSVKGRFTISRDNAKNTVYLQMNSLKPEDTAVYYCAAEGTGLQRYGYFGDDGYWGQGTQVTVSS | low polyreactivity
QVQLVESGGGLVQAGGSLRLSCAASGIIFAANAMGWYRQAPGKELELVAAISKNGGITYYADSVKGRFTISRDNAKNTVYLQMNSLIPEDPAVYYCAARWRQTRRYYYWGQGSQVTVSS | high polyreactivity
QVQLVESGGGLVQAGGSLRLSCAASGIIFAANAMGWYRQAPGKERELVAAISKNGGITYYADSVKGRFTISRDNAKNTVYLQMNSLKPEDTAVYYCAAKLSRRYYYWGQGTQVTVSS | high polyreactivity
QVQLVESGGGLVQAGGSLRLSCAASGIIFADYDMGWYRQAPGKERELVAAITGSGGSTYYADSVKGRFTISRDNEKKTVYLQMNSLKPEDTAVYYCAADYAYSYGYHYGYWGQGTQVTVSS | high polyreactivity
QVQLVESGGGLVQAGGSLRLSCAASGIIFAGNAMGWYRQAPGKERELLAVITSGGSTYYADSVKGRFTISRDNAKNTVFLQINSLIPEDTAVYYCNKVYYAYRVSLYSYGYWGQGTQVTVSS | high polyreactivity
QVQLVESGGGLVQAGGSLRLSCAASGIIFAGNAMGWYRQAPGKERELVAVITSGGSTYYADSVKGRFTISRDNAKNTVYLQMNSLKPEDTAVYYCNKVYYAYRVSLYRYGYWGQGTQVTVSS | high polyreactivity

Sequence | polyreactivity (PSR sort gate)
QVQLVESGGGLVQAGGSLRLSCAASGIIFAGYAMGWYRQAPGKERELVADITSSGTSTYYADSVKGRFTISRDNAKNTVYLQMNSLKPEDTAVYYCAADDPRKNFTILDYLYDYWGQGTQVTVSS | low polyreactivity
QVQLVESGGGLVQAGGSLRLSCAASGIIFAIYAMGWYRQAPGKERELVAAITWRGGSTYYADSVKGRFTISRDNAKNTVYLQMNSLKPEDTAVYYCAAVTKSLYGYDYWGQGSQVTVSS | low polyreactivity
QVQLVESGGGLVQAGGSLRLSCAASGIIFAKYAMGWYRQPPGKERELVASISRPGGSTYYADSVKGRFTISRDNAKNTVYLQMNSLKPEDTAVYDCNAPGLRDYDAEYDYWGQGTQVTVSS | high polyreactivity
QVQLVESGGGLVQAGGSLRLSCAASGIIFANNAMGWYRQAPGKERELVARISRSGGGTYYADSVKGRFTISRDNAKNTVYLQMNSLKPEDTAVYYCNAESSYYYGTAAYEYWGQGTQVTVSS | low polyreactivity
QVQLVESGGGLVQAGGSLRLSCAASGIIFANYAMGWYRQAPGKERELVAAITYSGGGTYYADSVKGRFTISRDNAKNTVYLQMNSLKPEDTAVYYSAAEYFYRWYYFPYGYWGQGTQVTVSS | high polyreactivity
QVQLVESGGGLVQAGGSLRLSCAASGIIFARNAMGWYRQAPGKERELVATISRNGGRTYYADSVKGRFTISRDNAKNTVYLQMNSLKPEDTAVYYCAAGFYLRAVWMDYWGQGTQVTVSS | high polyreactivity
QVQLVESGGGLVQAGGSLRLSCAASGIIFASNAMGWYRQAPGKERELVAAISGSGGRTYYADSVKGRFTISRDTAKNTVYLQMNSLKPEDTAVYYCAAARANNYDYWGQGTQVTVSS | high polyreactivity
QVQLVESGGGLVQAGGSLRLSCAASGIIFATYAMGWYRQAPGKERELVASISTGDSTNYADSVKGRFTISRDNAKNTVYLQMNSLKPEDTAVYYCNADSYPYYVYGSNDYWGQGTQVTVSS | low polyreactivity
QVQLVESGGGLVQAGGSLRLSCAASGIIFAWYAMGWYRQAPGKERELVAAISGRGGRTYYADSVKGRFTISRDNAKNTVYLQMNSLKPEDTPVYYCNKDKSVIYDYWGQGTQVTVSS | high polyreactivity
QVQLVESGGGLVQAGGSLRLSCAASGIIFAYAMGWYRQAPGKERELVAAISGRDGSTYYADSVKGRFTISRDNAKNTVYLQMNSLKPEDTAVYYCAKRISYLPVEMDYWGQGTQVTVSS | low polyreactivity
QVQLVESGGGLVQAGGSLRLSCAASGIIFAYNAMGWYRQAPGKERELVAAISVIGGTTYYADSVKGRFTISRDNAKNTVYLQMNSLKPEDTAVYYCAVDSVQYGGGYERLHELYYWGQGTQVTVSS | low polyreactivity
QVQLVESGGGLVQAGGSLRLSCAASGIIFAYNTMGWYRQAPGKARELVAAITYRGGRTYYADSVKGRFRISRDNAKNTFYLQMNSLKPEDTAVYYCAAGRGVYSYGYNYWGHGTQVTVSS | high polyreactivity
QVQLVESGGGLVQAGGSLRLSCAASGIIFAYYAMGRSRQAPGKEMEFVAGISCSGSSTNYADSVKGRFTISRDNAKNTVYFQMNSLKPEDTAVYYCAARSRRYHRTKPKYDYWGQGTQVTVSS | high polyreactivity
QVQLVESGGGLVQAGGSLRLSCAASGIIFAYYAMGWYRQAPGKERELVASISSGGTTKYADSVKGRFTISRDNAKNTVYLQMNSLKPEDTAVYYCAAEHRWRSWDMDYWGQGTQVTVSS | low polyreactivity
QVQLVESGGGLVQAGGSLRLSCAASGIIFDDYAMGWYRQAPGKERELVAAITTSGGRTYYADSVKGRFTISRDNAKNTVYLQMNSLKPEDTAVYYCATRRGRAYRWMNYWGQGTQVTVSS | high polyreactivity
QVQLVESGGGLVQAGGSLRLSCAASGIIFDEYAMGWYIQAPGKERELVAAITRDGGTNYADSVKGRFTISRDNAKNTVYLQMNSLKPEDTAVYYCAKRAYFYYGRYDYWGQGTQVTVSS | low polyreactivity
QVQLVESGGGLVQAGGSLRLSCAASGIIFDFYAMGWYRPAPGKERELVAAITSSGGSTYYADSVKGRFTISRDNAKNTVYLQMNSLKPEDTAVYYCAAEYTIYGTDQRYNYWGQGTQVTVSS | low polyreactivity
QVQLVESGGGLVQAGGSLRLSCAASGIIFDPYAMGWYRQAPGKERELVADIDNASSTYYADSVKGRFTISRDNAKNTVYLQMNSLKPEDTAVYYCAADLWYGGEYWGQGTQVTVSS | low polyreactivity
QVQLVESGGGLVQAGGSLRLSCAASGIIFDQNVMGWYRQAPGKERELVAAIRQTGGSTYYADSVKGRFTISRDNAKNTVYLQMNSLKPEDTAVYYCNAKPPGWFWGGFSYNRYYYWGQGTQVTVSS | low polyreactivity
QVQLVESGGGLVQAGGSLRLSCAASGIIFDTNAMGWYRPAPGKERELVAAITRSGGGTYYADSVKGRFSISRDNAKNTVYLQMNSLKPDDTAVYYCAARRQRDRYGYWGQGTQLTVSS | high polyreactivity
QVQLVESGGGLVQAGGSLRLSCAASGIIFDWYDMGWYRQAPGKERELVATITSDDGTNYADSVKGRFTIARDNAKNTVYFQLNSLKPEDTAVYYCAKRLIPSLPILQKMDYWGQGTQVTVSS | low polyreactivity

Source: the nanobody polyreactivity screen of Harvey et al. (2022)
